# Assays:
# [1] = test system: AncSZ; assay: phosphorylation enrichment, bacterial display (enrichment ratio); higher = better substrate or ligand; peptides without Tyr show the background
# [2] = target: EPHB1 (UniProt P54762); assay: as above
# [3] = target: EPHB2 (UniProt P29323); assay: as above
# [4] = target: FGFR1 (UniProt P11362); assay: as above
# [5] = target: FGFR3 (UniProt P22607); assay: as above
# [6] = test system: Fer (mouse); assay: as above
# [7] = target: Fes (UniProt P07332); assay: as above
# Chain of Fes (P07332 whole entry, looked up): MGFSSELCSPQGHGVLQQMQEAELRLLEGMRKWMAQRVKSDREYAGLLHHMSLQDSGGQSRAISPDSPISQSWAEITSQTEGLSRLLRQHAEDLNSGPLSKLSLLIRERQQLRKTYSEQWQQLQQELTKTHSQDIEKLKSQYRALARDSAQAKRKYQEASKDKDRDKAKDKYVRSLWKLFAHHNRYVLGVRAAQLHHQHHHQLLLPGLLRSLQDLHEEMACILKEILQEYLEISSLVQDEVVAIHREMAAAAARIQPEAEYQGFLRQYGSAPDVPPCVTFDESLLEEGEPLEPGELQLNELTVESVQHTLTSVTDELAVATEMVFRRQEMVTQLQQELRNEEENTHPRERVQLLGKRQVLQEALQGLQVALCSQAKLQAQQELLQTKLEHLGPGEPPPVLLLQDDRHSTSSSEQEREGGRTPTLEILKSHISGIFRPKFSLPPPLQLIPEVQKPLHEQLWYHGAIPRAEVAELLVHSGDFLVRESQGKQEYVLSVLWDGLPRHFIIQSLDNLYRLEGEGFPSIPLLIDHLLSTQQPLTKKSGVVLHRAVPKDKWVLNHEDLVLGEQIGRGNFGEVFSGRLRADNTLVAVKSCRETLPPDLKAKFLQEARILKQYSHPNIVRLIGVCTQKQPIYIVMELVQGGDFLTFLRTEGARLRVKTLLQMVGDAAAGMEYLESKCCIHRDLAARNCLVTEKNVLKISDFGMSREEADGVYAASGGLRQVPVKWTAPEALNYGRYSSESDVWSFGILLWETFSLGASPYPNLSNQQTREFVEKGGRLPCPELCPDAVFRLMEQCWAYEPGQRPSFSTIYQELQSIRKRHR
# [8] = target: Fyn (UniProt P06241); assay: as above
# Chain of Fyn (P06241 whole entry, looked up): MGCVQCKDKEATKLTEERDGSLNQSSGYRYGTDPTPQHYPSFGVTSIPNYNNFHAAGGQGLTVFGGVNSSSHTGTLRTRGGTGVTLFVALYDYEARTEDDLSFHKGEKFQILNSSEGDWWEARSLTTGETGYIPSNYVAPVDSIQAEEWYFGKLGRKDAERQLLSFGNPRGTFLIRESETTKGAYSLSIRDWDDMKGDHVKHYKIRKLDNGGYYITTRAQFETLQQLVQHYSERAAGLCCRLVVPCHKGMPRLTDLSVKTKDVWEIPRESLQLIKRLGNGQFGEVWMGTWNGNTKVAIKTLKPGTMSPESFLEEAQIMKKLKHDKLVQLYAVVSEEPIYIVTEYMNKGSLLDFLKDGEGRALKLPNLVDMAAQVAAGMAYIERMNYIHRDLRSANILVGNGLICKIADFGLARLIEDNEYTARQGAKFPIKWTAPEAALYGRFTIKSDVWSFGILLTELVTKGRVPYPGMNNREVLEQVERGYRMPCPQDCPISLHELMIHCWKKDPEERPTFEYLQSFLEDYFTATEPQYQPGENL
# [9] = target: Hck (UniProt P08631); assay: as above
# Chain of Hck (P08631 whole entry, looked up): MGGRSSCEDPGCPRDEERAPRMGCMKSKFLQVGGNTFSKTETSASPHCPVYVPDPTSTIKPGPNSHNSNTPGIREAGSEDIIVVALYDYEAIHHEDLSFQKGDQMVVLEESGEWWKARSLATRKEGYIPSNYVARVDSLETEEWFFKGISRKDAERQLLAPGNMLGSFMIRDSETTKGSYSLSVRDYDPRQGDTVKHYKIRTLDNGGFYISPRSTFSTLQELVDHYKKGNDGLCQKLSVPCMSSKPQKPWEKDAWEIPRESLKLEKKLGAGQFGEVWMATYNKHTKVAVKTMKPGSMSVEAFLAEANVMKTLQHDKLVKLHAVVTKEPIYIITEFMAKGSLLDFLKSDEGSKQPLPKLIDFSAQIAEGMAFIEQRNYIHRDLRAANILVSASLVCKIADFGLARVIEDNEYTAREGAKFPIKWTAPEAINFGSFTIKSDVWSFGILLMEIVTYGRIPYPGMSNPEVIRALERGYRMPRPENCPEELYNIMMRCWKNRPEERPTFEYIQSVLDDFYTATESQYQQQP
# [10] = target: Jak2 (UniProt O60674); assay: as above
# Chain of Jak2 (O60674 whole entry, looked up): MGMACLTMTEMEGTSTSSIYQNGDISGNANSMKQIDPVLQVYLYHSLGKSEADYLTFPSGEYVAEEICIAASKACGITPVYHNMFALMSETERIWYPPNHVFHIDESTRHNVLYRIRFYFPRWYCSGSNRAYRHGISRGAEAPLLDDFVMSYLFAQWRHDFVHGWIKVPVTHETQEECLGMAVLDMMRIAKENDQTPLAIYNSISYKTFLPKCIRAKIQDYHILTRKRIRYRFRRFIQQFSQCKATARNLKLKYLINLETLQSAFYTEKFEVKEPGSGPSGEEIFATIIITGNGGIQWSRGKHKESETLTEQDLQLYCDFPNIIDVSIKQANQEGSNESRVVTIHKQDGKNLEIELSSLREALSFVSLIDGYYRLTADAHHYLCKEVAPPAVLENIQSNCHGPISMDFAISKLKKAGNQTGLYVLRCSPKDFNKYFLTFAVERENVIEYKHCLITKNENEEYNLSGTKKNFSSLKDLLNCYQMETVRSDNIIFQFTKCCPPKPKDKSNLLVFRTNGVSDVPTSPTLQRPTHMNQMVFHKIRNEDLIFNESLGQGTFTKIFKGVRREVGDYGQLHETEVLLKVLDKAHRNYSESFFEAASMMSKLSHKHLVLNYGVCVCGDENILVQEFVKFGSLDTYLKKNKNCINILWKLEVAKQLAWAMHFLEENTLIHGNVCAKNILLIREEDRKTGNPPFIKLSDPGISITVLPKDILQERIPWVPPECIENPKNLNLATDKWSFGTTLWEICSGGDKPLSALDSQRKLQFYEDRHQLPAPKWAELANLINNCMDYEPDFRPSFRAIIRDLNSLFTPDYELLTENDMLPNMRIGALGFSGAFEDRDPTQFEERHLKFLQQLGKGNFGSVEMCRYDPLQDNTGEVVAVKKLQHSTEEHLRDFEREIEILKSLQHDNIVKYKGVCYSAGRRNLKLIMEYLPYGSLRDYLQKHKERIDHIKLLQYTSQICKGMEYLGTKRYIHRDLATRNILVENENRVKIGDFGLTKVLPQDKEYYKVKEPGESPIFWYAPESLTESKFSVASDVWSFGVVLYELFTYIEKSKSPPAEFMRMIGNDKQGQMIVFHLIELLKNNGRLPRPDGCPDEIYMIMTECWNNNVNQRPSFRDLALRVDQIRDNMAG
# [11] = target: MERTK (UniProt Q12866); assay: as above
# [12] = test system: c-Abl (mouse); assay: as above
# [13] = test system: c-Src; assay: as above
# [14] = target: Grb2 SH2 (UniProt P62993); assay: SH2 binding enrichment of the phosphorylated peptide, bacterial display (enrichment ratio); higher = better substrate or ligand; peptides without Tyr show the background
# [15] = target: SHP2-C SH2; assay: as above
# [16] = target: c-Src SH2; assay: as above
# 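Wherever SH2 binding enrichment of the phosphorylated peptide, bacterial display is given: peptide library displayed on the E. coli surface as eCPX fusions, selected cells deep-sequenced, score is each peptide's frequency after selection divided by its frequency in the input.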
# 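Wherever phosphorylation enrichment, bacterial display is given: 11-residue human phosphosite peptides and single-mutation variants displayed on the E. coli surface, counted by deep sequencing, each peptide's frequency after selection divided by its frequency in the unselected input library; frequency after pTyr selection over input frequency; kinase dosed for 20-30% of maximal phosphorylation in three min.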
# Chain of EPHB1 (P54762 whole entry, looked up): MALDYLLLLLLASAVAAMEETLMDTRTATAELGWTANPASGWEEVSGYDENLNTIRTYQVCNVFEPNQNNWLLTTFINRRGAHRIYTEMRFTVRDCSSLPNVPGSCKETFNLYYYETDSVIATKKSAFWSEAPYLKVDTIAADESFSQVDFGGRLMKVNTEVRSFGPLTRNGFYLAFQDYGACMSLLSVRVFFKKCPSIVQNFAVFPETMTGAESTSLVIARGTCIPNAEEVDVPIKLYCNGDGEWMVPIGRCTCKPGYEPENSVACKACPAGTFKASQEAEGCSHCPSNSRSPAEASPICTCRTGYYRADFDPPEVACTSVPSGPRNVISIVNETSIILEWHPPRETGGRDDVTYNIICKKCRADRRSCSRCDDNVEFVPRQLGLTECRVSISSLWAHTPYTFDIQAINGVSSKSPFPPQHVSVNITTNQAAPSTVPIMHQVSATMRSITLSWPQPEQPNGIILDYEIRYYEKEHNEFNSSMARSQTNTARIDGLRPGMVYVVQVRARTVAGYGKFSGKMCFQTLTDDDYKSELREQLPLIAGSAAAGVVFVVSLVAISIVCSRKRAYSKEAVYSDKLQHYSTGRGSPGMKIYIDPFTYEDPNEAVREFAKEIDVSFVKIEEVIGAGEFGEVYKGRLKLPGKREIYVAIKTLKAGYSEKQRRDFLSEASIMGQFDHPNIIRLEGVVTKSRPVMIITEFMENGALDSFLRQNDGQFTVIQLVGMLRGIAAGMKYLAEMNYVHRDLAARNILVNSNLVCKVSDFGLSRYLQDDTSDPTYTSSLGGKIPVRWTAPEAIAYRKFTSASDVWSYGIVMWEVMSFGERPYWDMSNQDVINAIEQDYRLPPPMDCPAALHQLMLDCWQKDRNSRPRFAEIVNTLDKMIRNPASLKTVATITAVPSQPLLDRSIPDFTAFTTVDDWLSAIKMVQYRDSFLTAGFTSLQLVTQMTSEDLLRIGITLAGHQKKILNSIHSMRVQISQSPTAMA
# Chain of EPHB2 (P29323 whole entry, looked up): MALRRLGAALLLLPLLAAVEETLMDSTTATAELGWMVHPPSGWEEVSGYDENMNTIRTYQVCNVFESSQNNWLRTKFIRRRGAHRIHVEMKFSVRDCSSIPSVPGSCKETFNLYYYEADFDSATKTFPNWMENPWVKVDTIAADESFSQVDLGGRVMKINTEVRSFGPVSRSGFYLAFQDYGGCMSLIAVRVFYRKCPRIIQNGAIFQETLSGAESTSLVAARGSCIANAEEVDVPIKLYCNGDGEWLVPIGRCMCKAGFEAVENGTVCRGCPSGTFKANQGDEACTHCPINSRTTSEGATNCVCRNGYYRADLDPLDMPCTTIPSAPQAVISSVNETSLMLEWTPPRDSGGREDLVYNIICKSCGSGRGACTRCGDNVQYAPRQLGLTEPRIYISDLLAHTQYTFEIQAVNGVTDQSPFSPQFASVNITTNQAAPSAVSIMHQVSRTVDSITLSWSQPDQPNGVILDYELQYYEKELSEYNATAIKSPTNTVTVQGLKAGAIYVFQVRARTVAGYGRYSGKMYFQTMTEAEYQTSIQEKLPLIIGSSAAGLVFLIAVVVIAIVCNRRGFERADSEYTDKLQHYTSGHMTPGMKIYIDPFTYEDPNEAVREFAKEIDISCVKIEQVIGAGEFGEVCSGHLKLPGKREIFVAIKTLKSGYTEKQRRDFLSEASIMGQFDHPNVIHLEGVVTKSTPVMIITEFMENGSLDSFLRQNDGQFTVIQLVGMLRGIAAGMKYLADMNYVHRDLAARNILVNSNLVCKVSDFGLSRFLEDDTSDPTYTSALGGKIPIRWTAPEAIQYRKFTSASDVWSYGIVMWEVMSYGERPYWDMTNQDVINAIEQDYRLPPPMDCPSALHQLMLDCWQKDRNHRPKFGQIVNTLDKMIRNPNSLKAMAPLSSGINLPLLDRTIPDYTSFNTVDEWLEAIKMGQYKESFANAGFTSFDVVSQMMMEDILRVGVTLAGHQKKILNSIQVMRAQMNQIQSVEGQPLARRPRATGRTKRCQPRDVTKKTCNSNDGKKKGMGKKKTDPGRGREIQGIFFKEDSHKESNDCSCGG
SH2 binding enrichment [14],SH2 binding enrichment [15],SH2 binding enrichment [16],Sequence,phosphorylation enrichment [1],phosphorylation enrichment [2],phosphorylation enrichment [3],phosphorylation enrichment [4],phosphorylation enrichment [5],phosphorylation enrichment [6],phosphorylation enrichment [7],phosphorylation enrichment [8],phosphorylation enrichment [9],phosphorylation enrichment [10],phosphorylation enrichment [11],phosphorylation enrichment [12],phosphorylation enrichment [13]
0.831,0.698,0.673,NLVSEYQQYQD [TUBB3_Y422_D417N],1.37,0.582,0.693,0.531,0.726,0.508,1.05,0.592,0.606,0.968,0.44,0.679,0.541
0.636,9.73,1.67,NMRSTYAKLAA [SEC22B_Y193_H190R],0.563,0.373,0.397,0.359,0.403,0.439,0.561,0.407,0.456,0.587,0.49,0.453,0.444
1.06,0.937,0.517,NPQKSYFIRLY [WAS_Y83],1.16,0.61,0.637,0.486,0.745,0.542,1.15,0.372,0.452,1.07,0.353,0.724,0.349
0.847,0.785,0.55,NTADFYDLFGG [PTPN11_Y63_G60A_YF],0.993,0.628,0.591,0.515,0.608,1.6,1.12,4.53,3.02,1.2,2.3,0.8,4.45
0.667,0.656,0.378,NTFEKYLGEEF [TF_Y669_YF],1.08,0.587,0.572,0.509,0.75,0.491,1.21,0.454,0.479,0.922,0.379,0.641,0.429
0.666,0.439,0.376,NTGDDYDLFGG [PTPN11_Y63_Y62D_YF],1.42,0.586,0.608,0.546,0.652,0.623,1.21,0.722,0.618,1.05,0.412,0.826,1.02
0.804,0.521,0.522,NTGDDYDLYGG [PTPN11_Y63_Y62D],1.33,0.581,1.05,0.51,0.683,0.775,1.17,1.51,2.47,0.912,0.494,0.684,1.65
1.01,0.747,0.988,NTGDYCDLYGG [PTPN11_Y63_Y63C],2.71,9.45,11.3,7.05,4.75,1.48,1.16,2.26,3.78,1.04,0.838,0.877,2.91
0.95,0.644,2.56,NTGVYYDLYGG [PTPN11_Y63_D61V],1.88,6.16,5.04,13.7,10.8,2.49,1.18,6.07,6.5,2.33,7.75,0.715,5.31
0.743,0.607,2.16,NTYEKYLEEEY [TF_Y669_G671E],1.6,0.802,0.686,0.553,0.86,0.563,1.93,0.535,0.608,1.6,0.563,1.27,0.9
0.875,0.84,0.614,NYRPGYNNFYN [USH2A_Y467],0.697,0.616,0.602,0.637,0.606,0.711,0.705,0.567,0.621,0.651,0.551,0.514,0.516
0.642,0.576,0.665,PDDPDYSLVDD [PSTPIP2_Y323_N322D],1.76,1.13,0.963,0.568,1.01,0.894,1.97,0.569,0.707,2.02,0.668,1.04,0.648
2.06,0.748,0.752,PDGHEYIYVDP [PDGFRA_Y572],5.55,3.21,2.66,11.7,7.36,2.64,1.39,1.32,1.6,1.81,1.46,2.84,3.24
0.953,0.613,0.642,PDKRIYQFTAS [SKAP2_Y197_A202S],0.691,0.491,0.629,0.831,0.649,0.802,0.684,0.826,0.698,0.637,0.846,0.551,0.765

# Continued, sequence first:
Sequence,SH2 binding enrichment [14],SH2 binding enrichment [15],SH2 binding enrichment [16],phosphorylation enrichment [1],phosphorylation enrichment [2],phosphorylation enrichment [3],phosphorylation enrichment [4],phosphorylation enrichment [5],phosphorylation enrichment [6],phosphorylation enrichment [7],phosphorylation enrichment [8],phosphorylation enrichment [9],phosphorylation enrichment [10],phosphorylation enrichment [11],phosphorylation enrichment [12],phosphorylation enrichment [13]
NIRKKYFRAIL [CHD7_Y1217_Q1214R_YF],0.764,0.544,0.356,0.583,0.466,0.6,0.48,0.546,0.394,0.661,0.45,0.451,0.496,0.555,0.633,0.504
NNIDFYKKTTN [FGFR2_Y657_YF],0.729,0.45,0.515,0.637,0.639,0.397,0.338,0.467,0.388,0.695,0.393,0.435,0.722,0.364,0.498,0.422
NPPGMYPVTGP [LPP_Y346],0.638,0.547,0.418,0.649,0.375,0.325,0.394,0.396,0.649,0.531,0.336,0.375,0.482,0.348,0.506,0.389
NRSSLYLVAGP [KIAA1614_Y1083],0.756,0.92,0.543,0.915,0.591,0.517,0.556,0.607,0.495,0.91,0.534,0.619,0.698,1.09,0.642,0.434
NRVEIYDKTVE [CYFIP1_Y108_E109D],1.15,0.504,0.798,0.905,0.495,0.521,0.534,0.519,0.435,0.938,0.443,0.682,0.755,0.4,0.576,0.47
NTVLGYFIGCI [GARS1_Y408_R412C],0.906,0.514,0.438,1.19,0.653,0.63,0.457,0.828,0.598,1.31,0.491,0.467,1.18,0.381,0.826,0.465
NVADHYRVYKP [ATP6V0D2_Y271_G272R],0.619,0.517,0.469,0.721,0.54,0.574,0.489,0.479,0.433,0.767,0.501,0.384,0.561,0.426,0.703,0.412
NVGGKYSFLKV [GRM3_Y478_YF],1.02,1.46,0.976,0.608,0.472,0.378,0.369,0.434,0.357,0.739,0.306,0.446,0.663,0.456,0.476,0.392
NVTRKYTRQIL [MAP3K2_Y463],0.853,0.644,0.477,0.363,0.333,0.264,0.316,0.353,0.305,0.411,0.372,0.265,0.339,0.319,0.397,0.373
PAVGIYNDNIN [CDCP1_Y707],0.749,0.729,0.481,1.07,0.806,0.685,0.612,0.575,0.6,1.08,1.29,1.17,0.925,0.641,0.71,1.12
PDGVEYLKNDP [GRIN3A_Y831],0.929,0.479,0.578,1.54,0.693,0.524,0.537,0.771,0.75,1.36,0.851,1,0.929,0.389,0.709,0.496
PDMHSYMVRFN [GRIN2D_Y732_YF],0.909,0.548,0.474,0.991,0.488,0.69,0.711,0.807,0.494,0.931,0.629,0.641,1.14,0.651,0.811,1.15
PDSVDYPKKGY [CTSK_Y121_R122P],0.841,0.724,0.601,0.917,0.529,0.951,0.56,0.654,0.832,0.654,0.759,0.614,0.707,0.537,0.544,0.569
PEADKYCLTYA [FGG_Y300_R301C],0.882,0.778,0.687,1.27,0.722,0.599,0.486,1.09,0.735,1.2,0.691,0.601,1.38,0.477,0.917,0.821
PESCLYKESWL [IQGAP2_Y630],0.916,1.06,0.523,2.25,1.29,1.2,1.55,2.14,1.18,2.81,1.21,1.5,2.09,1.2,1.46,0.775
PEYVVYKPQME [CCRL2_Y170_F167Y],0.913,1.05,0.439,6.34,2.97,7.28,8.3,6.08,1.09,1.29,9.13,6.69,5.75,1.14,9.5,9.4
PGPQSYPIVTG [PAX5_Y299],1,0.861,0.646,0.611,0.484,0.538,0.504,0.685,0.744,0.736,0.68,0.565,0.533,0.586,0.5,0.4
PGVDRYSLGTS [C5orf42_Y1451],0.576,0.762,0.262,0.789,0.577,0.788,0.755,0.745,0.57,0.973,0.702,0.678,0.769,0.788,0.741,0.737
PINLFYLMDLS [ITGB2_Y131_D128N_YF],0.772,0.781,0.489,1.46,0.752,0.886,0.772,1.11,0.695,1.98,0.653,0.718,1.92,0.763,2.11,1.11

# Reference: the supplement of paper PMC10065799, “High-throughput profiling of sequence recognition by tyrosine kinases and SH2 domains using bacterial peptide display” (eLife, 2023)
